From paper PMC3789972, “Human Mitochondrial Chaperone (mtHSP70) and Cysteine Desulfurase (NFS1) Bind Preferentially to the Disordered Conformation, Whereas Co-chaperone (HSC20) Binds to the Structured Conformation of the Iron-Sulfur Cluster Scaffold Protein (ISCU)*” (The Journal of Biological Chemistry, 2013)

Columns and labels:
[1] = biological target: human mitochondrial DnaK-type chaperone mtHSP70, mature form (human) (UniProt P38646)
[2] = biological target: human iron-sulfur cluster scaffold protein ISCU, wild type, mature form (human) (UniProt Q9H1K1); test: NMR titration; 1H,15N TROSY-HSQC of 0.5 mM U-15N-ISCU or U-15N-ISCU(N90A), aliquots of 0.4 mM unlabeled HSC20 added up to equimolar; TKDM buffer, 25 °C; %S from the Trp-76 cross-peaks and chemical shift perturbations
[3] = biological target: human ISCU(N90A), mature form (human); test: as above
[4] = biological target: human ISCU(H105A), mature form (human); test: NMR titration; 1H,15N HSQC / TROSY-HSQC of 0.5 mM U-15N-ISCU or variant, aliquots of 0.5 mM unlabeled mtHSP70 added up to equimolar; TKDM buffer (50 mM Tris-HCl pH 7.5, 150 mM KCl, 5 mM DTT, 10 mM MgCl2), 25 °C; %S from the Trp-76 cross-peaks
[5] = biological target: human ISCU(N90A), mature form (human); test: as above
[6] = biological target: human mitochondrial DnaK-type chaperone mtHSP70, mature form (human, UniProt P38646 47-679); test: cell-based or functional assay
human mitochondrial DnaK-type chaperone mtHSP70, mature form (human, UniProt P38646 47-679), sequence (P38646 47-679): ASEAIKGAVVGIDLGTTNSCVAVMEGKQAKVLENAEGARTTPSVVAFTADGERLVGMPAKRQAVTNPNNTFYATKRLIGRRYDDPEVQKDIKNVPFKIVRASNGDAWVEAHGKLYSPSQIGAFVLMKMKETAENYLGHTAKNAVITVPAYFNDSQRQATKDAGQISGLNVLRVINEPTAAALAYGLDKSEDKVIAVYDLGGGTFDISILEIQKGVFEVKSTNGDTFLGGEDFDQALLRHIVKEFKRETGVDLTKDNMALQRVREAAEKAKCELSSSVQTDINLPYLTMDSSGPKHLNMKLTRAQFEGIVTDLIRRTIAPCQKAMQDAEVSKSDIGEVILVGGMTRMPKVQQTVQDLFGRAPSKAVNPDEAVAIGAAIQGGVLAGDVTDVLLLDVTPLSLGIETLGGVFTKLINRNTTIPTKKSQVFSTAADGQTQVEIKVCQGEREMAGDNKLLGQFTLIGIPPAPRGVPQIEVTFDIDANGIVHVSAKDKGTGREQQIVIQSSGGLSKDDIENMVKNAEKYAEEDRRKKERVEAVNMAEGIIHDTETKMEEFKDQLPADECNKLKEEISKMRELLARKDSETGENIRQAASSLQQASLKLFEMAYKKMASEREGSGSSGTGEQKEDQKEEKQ

human mitochondrial DnaK-type chaperone mtHSP70, mature form (human), sequence (P38646 47-679): as above

**Q.** What does the source list for “human ISCU(N90A), mature form (natural protein)”?
**A.** ATPase activity of 1 μM mtHSP70: concentration of ISCU(N90A) required for half-maximal stimulation in the presence of 5 μM HSC20, double-reciprocal plot [1]: 3.5 µM; ATPase activity of 1 μM mtHSP70: maximal stimulation by ISCU(N90A) in the presence of 5 μM HSC20, double-reciprocal plot [1]: 8 fold; ATPase activity of 1 μM mtHSP70 as a function of added ISCU(N90A) up to 24 μM in the presence of 5 μM HSC20: increase over basal activity [1]: 7 fold

**Q.** “human mitochondrial DnaJ-type co-chaperone HSC20, mature form (natural protein)” was tested. Which %S of ISCU after adding equimolar HSC20 [2] did it give?
**A.** Its %S of ISCU after adding equimolar HSC20 is 31%.

**Q.** And the %S of ISCU(N90A) after adding 1 eq of HSC20 [3]?
**A.** Its %S of ISCU(N90A) after adding 1 eq of HSC20 is 99%.

**Q.** “human mitochondrial DnaK-type chaperone mtHSP70, mature form (from UniProt P38646 47-679) (natural protein)” was tested. Which %S of ISCU(H105A) at mole fraction 1.0 of added mtHSP70 [4] did it give?
**A.** The %S of ISCU(H105A) at mole fraction 1.0 of added mtHSP70 was 0.54%.

**Q.** And the %S of ISCU(N90A) at mole fraction 1.0 of added mtHSP70 [5]?
**A.** Its %S of ISCU(N90A) at mole fraction 1.0 of added mtHSP70 is 83%.

B1: human iron-sulfur cluster scaffold protein ISCU, wild type, mature form (natural protein, UniProt Q9H1K1 35-167, looked up)
chain: YHKKVVDHYENPRNVGSLDKTSKNVGTGLVGAPACGDVMKLQIQVDEKGKIVDARFKTFGCGSAIASSSLATEWVKGKTVEEALTIKNTDIAKELCLPPVKLHCSMLAEDAIKAALADYKLKQEPKKGEAEKK
**Q.** B1 was tested. Which “ATPase activity of 1 μM mtHSP70: increase over basal activity with 15 μM ISCU and 4 μM HSC20” value [6] did it give?
**A.** The value was ~15 fold.

**Q.** And the “ATPase activity of 1 μM mtHSP70: maximal stimulation upon adding ISCU in the presence of 5 μM HSC20, double-reciprocal plot” value [6]?
**A.** Its value is ~17 fold.
